Assay results from PMC7519299.

Target: ATP synthase subunit c (bovine), P32876
Conditions: remark: other sources report otherwise

B1: ATP synthase subunit c, P32876 62-136 (natural protein)
chain: DIDTAAKFIGAGAATVGVAGSGAGIGTVFGSLIIGYARNPSLKQQLFSYAILGFALSEAMGLFCLMVAFLILFAM
modifications: here or on the partner: trimethyllysine at position 43; trimethyllysine at position 43
  stoichiometry N: 8
